According to article doi:10.1101/2020.06.11.147496:

Molecular target: LuS-N71-SpyTag (Aquifex aeolicus lumazine synthase nanoparticle with a glycan at N71 and SpyTag at the N-terminus) (Aquifex aeolicus)

Q: How did the percent of nanoparticle subunits conjugated turn out when “SARS-CoV-2 spike-SpyCatcher (prefusion-stabilized SARS-CoV-2 spike trimer fused with a C-terminal SpyCatcher)” was run?
A: Its percent of nanoparticle subunits conjugated is 91%.
